In article PMC3448830 one finds Km, kcat and kcat/Km data, which are given here for 1 substance.

Common to all, as to details: other: substrate, Hanes-Woolf plots, pH 8.5, room temperature, 16 h
For data set [1], the system named is NCCCC(=O)O. The data set can be described thus: purified protein, by the assay type.
Data set [2] deals with NCc1c[nH]c(C(=O)O)c1. Description: Substrate activity for GABA-AT. The class given is biochemical, pig.
For data set [3], the system named is NCc1ccc(C(=O)O)o1. Description: Substrate activity for GABA-AT. The format is biochemical, pig.
Data set [4] concerns NCc1ccc(C(=O)O)s1. The data set can be described thus: Substrate activity for GABA-AT. The class given is biochemical, pig.
The test system of data set [5] is NCc1csc(C(=O)O)c1. Description: Substrate activity for GABA-AT. The class given is biochemical, pig.
Data set [6] has as its system NCc1ccc(C(=O)O)[nH]1. Description: Substrate activity for GABA-AT. The format is biochemical, pig.
Data set [7] concerns NCc1cocc1C(=O)O. Description: Substrate activity for GABA-AT. The class given is biochemical, pig.
The subject of data set [8] is NCc1coc(C(=O)O)c1. Description: Substrate activity for GABA-AT. The format is biochemical, pig.

By Km is commonly meant the substrate concentration at which the rate is half of its maximum. As usually defined, the kcat is the number of substrate molecules converted per active site and unit of time at saturation. In general, kcat/Km refers to the turnover number divided by the Michaelis constant. As for GABA-AT (Sus scrofa), the Km in data set [1] came out at 1300 ± 300 µM; in data set [2] it was 1400 ± 300 µM; in data set [3], 2100 ± 100 µM; in data set [4], 6300 ± 200 µM; in data set [5], 1700 ± 300 µM; in data set [6], 9500 ± 300 µM. Besides, the figures for the Km in data set [7] and in data set [8] were 2800 ± 500 µM and 310 ± 70 µM, respectively. Also, the kcat came out at 0.817 s⁻¹ in data set [1]; 5.67e-05 ± 5e-06 s⁻¹ in data set [2]; 0.000567 ± 6.67e-05 s⁻¹ in data set [3]; 0.000167 ± 5e-05 s⁻¹ in data set [4]; 2.5e-05 ± 3.33e-06 s⁻¹ in data set [6]; 1.38e-05 ± 8.33e-07 s⁻¹ in data set [7]. In data set [8], the catalytic constant (kcat) was found to be 3.83e-05 ± 1.67e-06 s⁻¹. The kcat/Km amounted to 643 M⁻¹ s⁻¹ in data set [1]; 0.04 M⁻¹ s⁻¹ in data set [2]; 0.267 M⁻¹ s⁻¹ in data set [3]; 0.0267 M⁻¹ s⁻¹ in data set [4]; 0.00267 M⁻¹ s⁻¹ in data set [6]; 0.005 M⁻¹ s⁻¹ in data set [7]. For the same substance, the kcat/Km in data set [8] turned out to be 0.123 M⁻¹ s⁻¹.
